{"source": "patent US9533026B2", "about": "“Polypeptide compounds for inhibiting angiogenesis and tumor growth” (VasGene Therapeutics, Inc., priority 2004, dated 2017)", "molecules": {"B1": {"name": "soluble EphB4: soluble EphB4 extracellular domain protein; exact construct not stated at the results (protein)", "chain": "LEETLLNTKLETADLKWVTFPQVDGQWEELSGLDEEQHSVRTYEVCDVQRAPGQAHWLRTGWVPRRGAVHVYATLRFTMLECLSLPRAGRSCKETFTVFYYESDADTATALTPAWMENPYIKVDTVAAEHLTRKRPGAEATGKVNVKTLRLGPLSKAGFYLAFQDQGACMALLSLHLFYKKCAQLTVNLTRFPETVPRELVVPVAGSCVVDAVPAPGPSPSLYCREDGQWAEQPVTGCSCAPGFEAAEGNTKCRACAQGTFKPLSGEGSCQPCPANSHSNTIGSAVCQCRVGYFRARTDPRGAPCTTPPSAPRSVVSRLNGSSLHLEWSAPLESGGREDLTYALRCRECRPGGSCAPCGGDLTFDPGPRDLVEPWVVVRGLRPDFTYTFEVTALNGVSSLATGPVPFEPVNVTTDREVPPAVSDIRVTRSSPSSLSLAWAVPRAPSGAVLDYEVKYHEKGAEGPSSVRFLKTSENRAELRGLKRGASYLVQVRARSEAGYGPFGQEHHSQTQLDESEGWREQLA"}, "B2": {"name": "B4ECv3: soluble extracellular domain derivative of human EphB4, SEQ ID NO:1 (protein)", "chain": "MELRVLLCWASLAAALEETLLNTKLETADLKWVTFPQVDGQWEELSGLDEEQHSVRTYEVCEVQRAPGQAHWLRTGWVPRRGAVHVYATLRFTMLECLSLPRAGRSCKETFTVFYYESDADTATALTPAWMENPYIKVDTVAAEHLTRKRPGAEATGKVNVKTLRLGPLSKAGFYLAFQDQGACMALLSLHLFYKKCAQLTVNLTRFPETVPRELVVPVAGSCVVDAVPAPGPSPSLYCREDGQWAEQPVTGCSCAPGFEAAEGNTKCRACAQGTFKPLSGEGSCQPCPANSHSNTIGSAVCQCRVGYFRARTDPRGAPCTTPPSAPRSVVSRLNGSSLHLEWSAPLESGGREDLTYALRCRECRPGGSCAPCGGDLTFDPGPRDLVEPWVVVRGLRPDFTYTFEVTALNGVSSLATGPVPFEPVNVTTDREVPPAVSDIRVTRSSPSSLSLAWAVPRAPSGAWLDYEVKYHEKGAEGPSSVRFLKTSENRAELRGLKRGASYLVQVRARSEAGYGPFGQEHHSQTQLDESEGWREQGSKRAILQIEGKPIPNPLLGLDSTRTGHHHHHH", "modifications": "Recombinant B4ECv3 protein"}}, "key": {"SCC15 tumors [1]": {"test_system": "SCC15 tumors", "assay": "SCC15 tumor growth and histology in nude mice, soluble EphB4", "format": "in vivo, mouse", "conditions": "for SCC15 tumor growth: Balb/C nu/nu mice", "experimental": "The same model was used to determine the effects of soluble EphB4 in vivo. SCC15 tumors implanted subcutaneously, pre-incubated with matrigel and with or w/o growth factors, as well as implanted sc alone, and mice treated sc or ip daily with 1-5 μg of soluble EphB4 were carried out.\nSubcutaneously inject logarithmically growing SCC15, head and neck squamous cell carcinoma cell line, at 5×10^6 cell density; with or without EphB4 ECD in the presence or absence of human bFGF, into athymic Balb/c nude mice, along with Matrigel (BD Bioscience) synthetic basement membrane (1:1 v/v), and examine tumors within 2 weeks. […] There was no difference in body weight between the groups. Immunohistochemical examination of cross-sections of resected tumors and TUNEL-positive apoptosis or necrosis, CD34 immunostaining, and BrdU proliferation rate will be performed, after deparaffinized, rehydrated, and quenched for endogenous peroxidase activity, and after 10 min permeabilization with proteinase K. Quantitative assessment of vascular densities will also be performed. Local intratumoral delivery or IV delivery of EphB4 ECD will also be performed twice a week.\n30 athymic nude mice, BALB/c (nu/nu), were each injected with 1×10^6 B16 melanoma cells with 0.1 ml PBS mixed with 0.1 ml matrigel or 1.5×10^6 SCC15 cells resuspended in 200 μl of DMEM serum-free medium and injected subcutaneously on day 0 on the right shoulder region of mice. Proteins were injected intravenously or subcutaneously, around the tumor beginning on day 1 at a loading dose of 4 μg/mg, with weekly injections of 2 ug/mg. (10 μg/g, 50 μg/kg/day), and at 2 weeks post-inoculation. Mice are sacrificed on Day 14. Control mice received PBS 50 μl each day.\nAll animals were treated under protocols approved by the institutional animal care committees. Cancer cells (5×10^6) were subcutaneously inoculated into the dorsal skin of nude mice. When the tumor had grown to a size of about 100 mm^3 (usually it took 1[…]2 days), sEphB4 was either intraperitoneally or subcutaneously injected once/day, and tumorigenesis was monitored for 2 weeks. Tumor volume was calculated according to the formula a^2xb, where a and b are the smallest and largest diameters, respectively. A Student's t test was used to compare tumor volumes, with P<0.05 being considered significant.\nTumors were fixed in 4% formaldehyde, embedded in paraffin, sectioned by 5 μm, and stained with hematoxylin[…]eosin. Vessel density was semi-quantitated using a computer-based image analyzer (five fields per section from three mice in each group)."}, "KS-SLK cells": {"test_system": "KS-SLK cells", "assay": "KS-SLK cord formation on Matrigel", "format": "cell-based, human", "experimental": "(§1) Cord formation assay of HUVEC in Matrigel™ (upper row). Cells in exponential growth phase were treated overnight with the indicated concentrations of EphB4 extracellular domain (ECD) prior to plating on Matrigel™. Cells were trypsinized and plated (1×10^5 cells/well) in a 24-well plate containing 0.5 ml Matrigel™. Shown are representative 20× phase contrast fields of cord formation after 8 hr plating on Matrigel™ in the continued presence of the test compounds as shown. Original magnification 200×. KS-SLK cells treated in a similar manner (middle row) in a cord formation assay on Matrigel™. […] After 7 days the plugs were removed, sectioned and stained with H&E to visualize cells migrating into the matrix."}, "HUVEC": {"test_system": "HUVEC", "assay": "Endothelial cell tube (cord) formation on Matrigel", "format": "cell-based, human", "experimental": "as §1\nMatrigel (60 μl of 10 mg/ml; Collaborative Lab #35423) is placed in each well of an ice-cold 96-well plate. The plate is allowed to sit at room temperature for 15 minutes then incubated at 37° C. for 30 minutes to permit the matrigel to polymerize. In the mean time, HUVECs are prepared in EGM-2 (Clonetic #CC3162) at a concentration of 2×10^5 cells/ml. The test compound is prepared at 2× the desired concentration (5 concentration levels) in the same medium. Cells (500 μl) and 2× drug (500 μl) is mixed and 200 μl of this suspension are placed in duplicate on the polymerized matrigel. After 24 h incubation, triplicate pictures are taken for each concentration using a Bioquant Image Analysis system. Drug effect (IC50) is assessed compared to untreated controls by measuring the length of cords formed and number of junctions.\nMatrigel (60 μl of 10 mg/ml; Collaborative Lab, Cat. No. 35423) was placed in each well of an ice-cold 96-well plate. The plate was allowed to sit at room temperature for 15 minutes then incubated at 37° C. for 30 minutes to permit Matrigel to polymerize. In the mean time, human umbilical vein endothelial cells were prepared in EGM-2 (Clonetic, Cat. No. CC3162) at a concentration of 2×10^5 cells/ml. The test protein was prepared at 2× the desired concentration (5 concentration levels) in the same medium. Cells (500 μl) and 2× protein (500 μl) were mixed and 200 μl of this suspension were placed in duplicate on the polymerized Matrigel. After 24 h incubation, triplicate pictures were taken for each concentration using a Bioquant Image Analysis system. Protein addition effect (IC50) was assessed compared to untreated controls by measuring the length of cords formed and number of junctions."}, "SCC15 tumors [2]": {"test_system": "SCC15 tumors", "assay": "SCC15 tumor growth and histology in nude mice, soluble EphB4", "format": "in vivo, mouse", "conditions": "treated vs control tumors, CD31"}, "EphB4 receptor": {"test_system": "EphB4 receptor", "assay": "EphB4 receptor phosphorylation in HUVECs (Western blot)", "format": "cell-based, human", "conditions": "serum-starved HUVECs, in the presence of EphrinB2Fc", "text": "We examined EphB4 receptor phosphorylation in HUVECs by performing Western blot analyses with lysates from soluble EphB4-treated cells and antibodies against phosphor-tyrosine. […] Ephrin B2Fc without the soluble EphB4 protein induced phosphorylation of EphB4 receptor (FIG. 22)."}, "HUVECS": {"test_system": "HUVECS", "assay": "MTS cytotoxicity assay", "format": "cell-based, human"}, "HNSCC-15 cells": {"test_system": "HNSCC-15 cells", "assay": "Cell cycle FACS of HNSCC cells with soluble EphB4ECD", "format": "cell-based, human"}}, "note": "“Also recorded” adds a separate entry of the source. Where two headings read alike, the source gives them in different places."}
{"molecule": "B1", "values": [{"measurement": "SCC15 tumor growth", "setting": "SCC15 tumors [1]", "value": "inhibits; also recorded: reduced growth rate"}, {"measurement": "tumor angiogenesis", "setting": "SCC15 tumors [1]; SCC15, premixed with Matrigel plus growth factors, 10 to 14 days, FITC-lectin", "value": "marked inhibition"}, {"measurement": "Tumor volumes versus vehicle groups", "setting": "SCC15 tumors [1]; co-injected with Matrigel, presence and absence of growth factor, within 2 weeks", "value": "three-fold smaller"}, {"measurement": "Fibrin deposition in and around blood vessels", "setting": "SCC15 tumors [1]; inner viable rim and central necrotic core, Masson's Trichrome", "value": "increased"}, {"measurement": "effects on the endothelium in normal tissues", "setting": "SCC15 tumors [1]; lungs, liver and kidneys", "value": "no such effects"}, {"measurement": "Necrosis, percentage of tumor section area", "setting": "SCC15 tumors [1]; treated vs control, p<0.02", "value": "more extensive"}, {"measurement": "body weight", "setting": "SCC15 tumors [1]; tumor-bearing mice", "value": "no significant effect"}, {"measurement": "tolerability in vivo", "setting": "SCC15 tumors [1]; tumor-bearing mice, general well-being", "value": "well tolerated"}, {"measurement": "body weight", "setting": "SCC15 tumors [1]; tumor-bearing mice, listed as EphB4 ECD", "value": "no difference"}, {"measurement": "cord formation", "setting": "KS-SLK cells", "value": "inhibits"}, {"measurement": "endothelial cell tube / tubule / cord formation", "setting": "HUVEC", "value": "significantly inhibited"}, {"measurement": "endothelial cell tube / tubule / cord formation", "setting": "HUVEC; listed as EphB4-ECD", "value": "inhibits"}, {"measurement": "Microvessel density in the outer viable rim of tumor cells", "setting": "SCC15 tumors [2]", "value": "similar"}, {"measurement": "level of phosphorylated EphB4", "setting": "EphB4 receptor", "value": "rapid and transient decrease"}, {"measurement": "cytotoxic effect", "setting": "HUVECS", "value": "no detectable cytotoxic effect"}, {"measurement": "cell cycle distribution", "setting": "HNSCC-15 cells", "value": "accumulation in subG0/G1 and S/G2 phases"}]}
{"molecule": "B2", "values": [{"measurement": "SCC15 tumor growth", "setting": "SCC15 tumors [1]", "value": "inhibits"}, {"measurement": "endothelial cell tube / tubule / cord formation", "setting": "HUVEC", "value": "inhibition"}, {"measurement": "endothelial cell tube / tubule / cord formation", "setting": "HUVEC; listed as B4v3", "value": "strong inhibition"}]}
